Experimental data as given in patent publication US20240199730A1 (AstraZeneca / MedImmune, published 2024).

T1: N-terminally tagged biotinylated cyno TSLP (cynomolgus, UniProt A0A7N9CAT7 29-159, biotinylated (site not stated))
T1 construct: Captured on a streptavidin C1 chip in the Biacore assay; also called recombinant mammalian cell-expressed cyno TSLP; not shown: N-terminal tag
T1 sequence: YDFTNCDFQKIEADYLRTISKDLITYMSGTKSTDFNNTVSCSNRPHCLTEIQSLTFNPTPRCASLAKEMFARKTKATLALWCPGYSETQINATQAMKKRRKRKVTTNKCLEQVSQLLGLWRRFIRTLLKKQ

B1: cyno TSLP (ligand, cynomolgus)
chain: T1 sequence
notes: Cyno TSLP as used in solution in the KinExA assay; also called Cynomolgus TSLP
B2: Fab 1 (Fab, V domains shown)
VH: QMQLVESGGGVVQPGRSLRLSCAASGFTFRTYGMHWVRQAPGKGLEWVAVIWYDGSNKHYADSVKGRFTITRDNSKNTLNLQMNSLRAEDTAVYYCARAPQWELVHEAFDIWGQGTMVTVSS
VL: SYVLTQPPSVSVAPGQTARITCGGNNLGSKSVHWYQQKPGQAPVLVVYDDSDRPSWIPERFSGSNSGNTATLTISRGEAGDEADYYCQVWDSSSDHVVFGGGTKLTVLG
notes: The claims call it an IgG1 Fab; It was injected as monomerized Fab1 in the Biacore assay; also called anti-TSLP Fab

Assays:
Fab 1 [1] = target: B2; test: KinExA, cyno TSLP titrated into 40 pM fixed Fab 1 (open squares); free Fab 1 captured on hu TSLP-coated beads; the midpoint depends on the fixed Fab concentration
Source text: (§1) The KinExA methodology has been reviewed (Darling and Brault, 2004).
(§2) The KinExA software was used to calculate the equilibrium dissociation constant (KD).

Fab 1 [2] = target: B2; test: KinExA, cyno TSLP titrated into 1000 pM fixed Fab 1 (filled diamonds); free Fab 1 captured on hu TSLP-coated beads; the midpoint depends on the fixed Fab concentration
Source text: as §1, §2

cyno TSLP = target: B1; test: KinExA, solution phase; global 1:1 fit to two datasets
Source text: as §1, §2

[3] = target: T1, N-terminally tagged biotinylated cyno …; test: SPR, Biacore 8K; biotinylated TSLP on streptavidin C1 chip, Fab1 injected; 1:1 Langmuir model
Procedure: Streptavidin surfaces were prepared using lyophilized streptavidin that was reconstituted with D-PBS. Briefly, streptavidin was diluted to 4 μg mL-1 in 10 mM sodium acetate pH 4.5 and covalently immobilized to three flow cell surfaces of a S Series C1 biosensor chip by standard amine coupling methods. A final streptavidin surface of 170 response units (RUs) was achieved. The amine coupling reagents were also used to prepare a control blank surface, with no immobilized streptavidin, to serve as a reference surface within each flow cell. […] The low level of analyte binding ensured that mass-transport induced artefacts were minimized, especially when combined with the relatively fast, 50 μL min-1 assay flow-rates used during the kinetics measurement steps. […] Multiple buffer-only injections were made under the same conditions throughout the experiment to allow for double reference processing of the final sensorgram sets.
The chip surface was fully regenerated by flowing two 30 second pulses of 10 mM glycine pH 1.7. Binding affinity and kinetics were determined using 1:1 Langmuir model.

| IC50 (read off the curve) (Fab 1 [1]) [nM] | IC50 (read off the curve) (Fab 1 [2]) [nM] | Kd (cyno TSLP) [nM] | Kd [3] [nM] | Binder |
| --- | --- | --- | --- | --- |
| ~0.04 | ~0.6 | – | – | B1 |
| – | – | 0.0136 | 0.0884 | B2 |
